According to US20220251241A1 (NGM BIOPHARMACEUTICALS, published 2022):
Each block holds one binder with its values, some of them ahead of it.

Legend:
[1] = target: T1, HTRA1 (construct not given) (Homo sapiens (Human), UniProt Q92743 23-480, limits assumed); experiment: protease inhibition assay, casein substrate (EnzChek); apparent Ki (Ki^app)
Text: (§1) Two enzymatic assays were used to characterize HTRA1 protease activity and evaluate inhibitory activity of anti-HTRA1 antibodies. EnzChek® Protease Assay Kit (ThermoFisher Scientific) was used following the manufacturer's instructions. This kit contains casein protein that is heavily labeled with the pH-insensitive green-fluorescent BOPIPY® FL dye that results in almost total quenching of the conjugate's fluorescence. Protease-catalyzed hydrolysis of labeled casein releases highly fluorescent BODIPY® FL dye-labeled peptides. The concomitant increase in fluorescence is proportional to protease activity.
Antibodies identified in HTRA1 binding assays were tested for their ability to inhibit HTRA1 protease activity. The range of antibody concentrations was tested to establish a dose response curve and determine IC₅₀ values.

[2] = target: T1, HTRA1 (construct not stated in the …); experiment: cell-based or functional assay
[3] = target: T1, HTRA1 (construct not stated in the …); experiment: cell-based or functional assay; remark: listed apart in the source
[4] = target: human delta N-HTRA1 (amino acids 156-480 of SEQ ID NO:1) (human, UniProt Q92743 156-480); experiment: SPR (Biacore); antibody captured by anti-Fc, human delta N-HTRA1 injected; temperature of this table not stated
Chain of human delta N-HTRA1 (amino acids 156-480 of SEQ ID NO:1) (Q92743 156-480, stated change not applied): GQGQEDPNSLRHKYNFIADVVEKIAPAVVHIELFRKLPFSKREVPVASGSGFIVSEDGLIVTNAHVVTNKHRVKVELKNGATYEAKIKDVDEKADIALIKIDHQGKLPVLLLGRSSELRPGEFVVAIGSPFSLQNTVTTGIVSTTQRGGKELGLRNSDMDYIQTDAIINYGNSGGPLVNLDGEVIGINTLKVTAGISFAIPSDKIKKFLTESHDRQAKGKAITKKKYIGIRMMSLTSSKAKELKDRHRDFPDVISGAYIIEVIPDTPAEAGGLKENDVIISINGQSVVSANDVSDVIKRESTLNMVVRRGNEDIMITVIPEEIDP
Experimental: (§2) The binding affinities of anti-HTRA1 antibodies to human HTRA1 were measured using a Biacore system (GE Healthcare Life Sciences). Briefly, anti-Fc antibody (Sigma-Aldrich) was immobilized on all four flow cells of a CMS chip using amine coupling reagents (GE Healthcare LifeSciences). Antibodies were captured on flow cells 2, 3, and 4 using flow cell 1 as a reference. Concentrations ranging from 3.3-10 nM of human delta N-HTRA1 were injected at a flow rate of 50 μL/min at 37° C. Kinetic data were collected over time and fit using the simultaneous global fit equation to yield affinity constants (KD values) for each antibody.

[5] = target: T1, HTRA1 (construct not stated in the …); experiment: cell-based or functional assay; remark: listed apart in the source
[6] = target: T1, HTRA1 (construct not stated in the …); experiment: SPR (Biacore), 25° C.
Experimental: as §2, with “Concentrations ranging from 3.3-10 nM of human delta N-HTRA1 were injected at a flow rate of 50 μL/min at 37° C.” left out
(§3) SPR assays were set up using a Biacore system as described herein.

[7] = target: T1, HTRA1 (construct not stated in the …); experiment: protease inhibition assay, H2-Opt peptide substrate (FRET); apparent Ki (Ki^app)
[8] = target: T1, HTRA1 (construct not stated in the …); experiment: SPR (Biacore), 37° C.
Experimental: as §2, §3

[9] = target: T1, HTRA1 (construct not stated in the …); experiment: protease inhibition assay, casein substrate; apparent Ki (Ki^app)
Text: as §1
To confirm that the humanized version of antibody 24F7 retained the ability to inhibit H IRA1 protease activity, hz24F7.v2 was assessed in casein and H2-Opt assays as described herein.

[10] = target: T1, HTRA1 (construct not stated in the …); experiment: cell-based or functional assay; remark: listed apart in the source
[11] = target: endogenously expressed HTRA1 secreted by the human melanoma cell line C32 (human, UniProt Q92743 23-480); experiment: cell-based or functional assay
Chain of endogenously expressed HTRA1 secreted by the human melanoma cell line C32 (Q92743 23-480): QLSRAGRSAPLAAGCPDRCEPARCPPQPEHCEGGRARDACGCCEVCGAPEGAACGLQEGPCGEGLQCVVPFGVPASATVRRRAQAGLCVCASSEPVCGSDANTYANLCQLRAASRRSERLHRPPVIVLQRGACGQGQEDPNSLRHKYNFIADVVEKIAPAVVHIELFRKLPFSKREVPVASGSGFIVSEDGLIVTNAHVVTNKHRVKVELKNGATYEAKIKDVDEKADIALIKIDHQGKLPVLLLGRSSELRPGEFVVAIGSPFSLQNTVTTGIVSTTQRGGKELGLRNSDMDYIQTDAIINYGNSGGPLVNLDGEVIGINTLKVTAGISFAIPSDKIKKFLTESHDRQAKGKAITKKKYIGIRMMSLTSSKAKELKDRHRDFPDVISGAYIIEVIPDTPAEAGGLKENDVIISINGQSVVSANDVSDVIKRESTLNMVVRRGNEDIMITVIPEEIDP

[12] = target: T2, human HTRA1 full length protein (HTRA1-FL) (human, UniProt Q92743 23-480); experiment: SPR (Biacore), 37° C.
T2 construct: also called human HTRA1-FL
T2 sequence (Q92743 23-480): as above
Experimental: as §2
(§4) The binding affinity of hz24F7.v2 to a HTRA1 full length protein (HTRA1-FL) or a HTRA1-CAT was determined using a Biacore system as described herein and compared with the binding affinity of the parental 24F7 antibody (see Table 9).

[13] = target: T1, HTRA1 (construct not stated in the …); experiment: protease inhibition assay, H2-Opt peptide substrate; apparent Ki (Ki^app)
HTRA1-CAT R190A mutant = HTRA1-CAT R190A mutant (human, UniProt Q92743 156-364); experiment: ELISA
Chain of HTRA1-CAT R190A mutant (Q92743 156-364 R190A): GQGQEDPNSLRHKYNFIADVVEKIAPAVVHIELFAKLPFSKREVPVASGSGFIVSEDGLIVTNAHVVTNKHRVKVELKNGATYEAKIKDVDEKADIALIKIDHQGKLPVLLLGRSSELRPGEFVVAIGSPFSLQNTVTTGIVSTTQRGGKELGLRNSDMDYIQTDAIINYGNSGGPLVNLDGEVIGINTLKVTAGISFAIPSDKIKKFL
Experimental: (§5) A series of mutated HTRA1-catalytic domain (HTRA1-CAT; amino acids 156-364 of SEQ ID NO:1) proteins containing single amino acid substitutions were generated by standard methods (e.g., site directed mutagenesis). Antibody 24F7 was tested by ELISA for binding to these mutant HTRA1-CAT proteins as well as a wild-type HTRA1 peptide consisting of amino acids […] (SEQ ID NO:92; R190—V201 of SEQ ID NO:1).

HTRA1-CAT P193A mutant = HTRA1-CAT P193A mutant (human, UniProt Q92743 156-364); experiment: ELISA
Chain of HTRA1-CAT P193A mutant (Q92743 156-364 P193A): as the sequence (Q92743 156-364 R190A) above, with A35R, P38A counted along it
Experimental: as §5

HTRA1-CAT R197A mutant = HTRA1-CAT R197A mutant (human, UniProt Q92743 156-364); experiment: ELISA
Chain of HTRA1-CAT R197A mutant (Q92743 156-364 R197A): as the sequence (Q92743 156-364 R190A) above, with A35R, R42A counted along it
Experimental: as §5

HTRA1-CAT F194A mutant = HTRA1-CAT F194A mutant (human, UniProt Q92743 156-364); experiment: ELISA
Chain of HTRA1-CAT F194A mutant (Q92743 156-364 F194A): as the sequence (Q92743 156-364 R190A) above, with A35R, F39A counted along it
Experimental: as §5

[14] = target: T3, wild-type HTRA1 peptide RKLPFSKREVPV (R190-V201 of SEQ ID NO:1) (human); experiment: ELISA
T3 construct: also called Wild type peptide (R190 - V201)
T3 peptide: RKLPFSKREVPV
Experimental: as §5

[15] = target: T4, HTRA1-catalytic domain (HTRA1-CAT; amino acids 156-364 of SEQ ID NO:1) (human, UniProt Q92743 156-364); experiment: SPR (Biacore), 37° C.; * = Limit of Detection
T4 construct: Wild-type catalytic domain construct; also called HTRA1 catalytic domain protein
T4 sequence (Q92743 156-364): as the sequence (Q92743 156-364 R190A) above, with A35R counted along it
Experimental: as §2, §4

[16] = target: T1, HTRA1 (construct not stated in the …); experiment: SPR (Biacore); affinity at baseline
[17] = target: T1, HTRA1 (construct not stated in the …); experiment: cell-based or functional assay; remark: listed apart in the source
[18] = target: T4, HTRA1-catalytic domain (HTRA1-CAT; …); experiment: SPR (Biacore), 25° C.; * = Limit of Detection; 25° C.; HTRA1-CAT; kon at limit of detection
[19] = target: T1, HTRA1 (construct not stated in the …); experiment: SPR (Biacore), 25° C.; antibody captured; sample stored 2 weeks at pH 7.4, 40° C.
Experimental: as §2, with “Concentrations ranging from 3.3-10 nM of human delta N-HTRA1 were injected at a flow rate of 50 μL/min at 37° C.” left out, “antibody. […]” for “antibody.”

[20] = target: T4, HTRA1-catalytic domain (HTRA1-CAT; …); experiment: SPR (Biacore), 37° C.; kon at the limit of detection
Experimental: as §2, §4

[21] = target: T4, HTRA1-catalytic domain (HTRA1-CAT; …); experiment: SPR (Biacore), 25° C.
[22] = target: T2, human HTRA1 full length protein …; experiment: SPR (Biacore), 25° C.
[23] = target: T1, HTRA1 (construct not stated in the …); experiment: cell-based or functional assay; remark: listed apart in the source
[24] = target: T1, HTRA1 (construct not stated in the …); experiment: SPR (Biacore), 25° C.; antibody captured; sample stored 8 weeks at pH 7.4, 40° C.
Experimental: as §2, with “Concentrations ranging from 3.3-10 nM of human delta N-HTRA1 were injected at a flow rate of 50 μL/min at 37° C.” left out, “antibody. […]” for “antibody.”

[25] = target: T1, HTRA1 (construct not stated in the …); experiment: SPR (Biacore), 25° C.; antibody captured; sample stored 4 weeks at pH 7.4, 40° C.
Experimental: as §2, with “Concentrations ranging from 3.3-10 nM of human delta N-HTRA1 were injected at a flow rate of 50 μL/min at 37° C.” left out, “antibody. […]” for “antibody.”

[26] = target: T1, HTRA1 (construct not stated in the …); experiment: cell-based or functional assay; remark: listed apart in the source
[27] = target: endogenous HTRA1 protein in the serum of the animals dosed with hz24F7.v2 (PK serum samples) (cynomolgus monkey); experiment: cell-based or functional assay
[28] = target: T4, HTRA1-catalytic domain (HTRA1-CAT; …); experiment: SPR (Biacore), 37° C.
Experimental: as §2, §4

[29] = target: T4, HTRA1-catalytic domain (HTRA1-CAT; …); experiment: SPR (Biacore), 25° C.; kon at the limit of detection
[30] = target: T1, HTRA1 (construct not stated in the …); experiment: SPR (Biacore), 25° C.; antibody captured; sample stored 0 weeks at pH 7.4, 40° C.
Experimental: as §2, with “Concentrations ranging from 3.3-10 nM of human delta N-HTRA1 were injected at a flow rate of 50 μL/min at 37° C.” left out, “antibody. […]” for “antibody.”

T1 sequence (Q92743 23-480 limits assumed): as the sequence (Q92743 23-480) above

Ki [1]: 0.054 nM
IC50, Protease Assay-Casein substrate [2]: 0.15 nM
IC50, Protease Assay-H2-Opt peptide [2]: 0.12 nM
IC50, Casein Assay [3]: 0.35 nM
IC50, H2-Opt Assay [3]: 0.17 nM
Kd [4]: 0.012 nM
koff [4]: 8.5e-05 s⁻¹
kon [4]: 7.4e+06 M⁻¹ s⁻¹
IC50 (read off the curve), HTRA1 protease assay, casein substrate 0.05 ug/ml (inverted triangles) [5]: ~0.2 nM
IC50 (read off the curve), HTRA1 protease assay, casein substrate 0.1 ug/ml (triangles) [5]: ~0.2 nM
IC50 (read off the curve), HTRA1 protease assay, casein substrate 0.2 ug/ml (circles) [5]: ~0.2 nM
IC50 (read off the curve), HTRA1 protease assay, casein substrate 0.3 ug/ml (squares) [5]: ~0.2 nM
Kd [6]: 0.03 nM
koff [6]: 5e-05 s⁻¹
kon [6]: 1.6e+06 M⁻¹ s⁻¹
Ki [7]: 0.118 nM
Kd [8]: 0.021 nM
koff [8]: 8.2e-05 s⁻¹
kon [8]: 4e+06 M⁻¹ s⁻¹
Ki [9]: 0.099 nM
IC50 of inhibition of HTRA1 protease activity, H2-Opt peptide as substrate [10]: 0.164 nM
IC50 of inhibition of HTRA1 protease activity, casein as substrate [10]: 0.145 nM
IC50 of inhibition of protease activity, EnzChek protease assay with C32 conditioned media [11]: 0.118 nM
Kd [12]: 0.047 nM
koff [12]: 8.6e-05 s⁻¹
kon [12]: 1.8e+06 M⁻¹ s⁻¹
Ki [13]: 0.076 nM
binding result (HTRA1-CAT R190A mutant): no binding
binding result (HTRA1-CAT P193A mutant): binds
binding result (HTRA1-CAT R197A mutant): no binding
binding result (HTRA1-CAT F194A mutant): binds
binding result [14]: no binding
B1: antibody 24F7 (antibody, V domains shown)
VH: QVQLQQSGAELVRPGASVKLSCKASGYTFTDYEMHWVKQTPVHGLEWIGAIDPETGGTAYNQKFKGKATLTADKSSSTAYMELRSLTSEDSAVYYCTREGYSYDGGGYYFDYWGQGTTLTVSS
VL: QIVLTQSPAIMSASPGEKVTMTCSVSSSVSYMYWYQQKPGSSPRLLIYDTSNLASGVPVRFSGSGSGTSYSLTISRMEAEDAATYYCQQWSSYPTFGGGTKLEIK
notes: Mouse hybridoma monoclonal antibody; also called parental 24F7 antibody

kon [15]: 1.1e+07 M⁻¹ s⁻¹
Kd [16]: 0.0176 nM
koff [16]: 0.000225 s⁻¹
kon [16]: 1.28e+07 M⁻¹ s⁻¹
IC50, Casein Assay [3]: 0.29 nM
IC50, H2-Opt Assay [3]: 0.12 nM
IC50 at baseline [17]: 0.066 nM
kon [18]: ≥ 3.9e+06 M⁻¹ s⁻¹
Kd [19]: 0.178 nM
koff [19]: 0.000374 s⁻¹
kon [19]: 2.1e+06 M⁻¹ s⁻¹
Kd [20]: < 0.1 nM
koff [21]: 5.6e-05 s⁻¹
Kd [22]: 0.058 nM
koff [22]: 4.2e-05 s⁻¹
kon [22]: 710000 M⁻¹ s⁻¹
IC50, enzyme assay; hz24F7.v2 reference in the S91Y column [23]: 0.0645 nM
IC50, enzyme assay; hz24F7.v2 reference in the S92T column [23]: 0.0645 nM
Kd [24]: 0.167 nM
koff [24]: 0.000502 s⁻¹
kon [24]: 3.01e+06 M⁻¹ s⁻¹
Ki [9]: 0.086 nM
Kd [25]: 0.144 nM
koff [25]: 0.000388 s⁻¹
kon [25]: 2.68e+06 M⁻¹ s⁻¹
IC50 (read off the curve), HTRA1 enzymatic assay, Hz24F7.v2 standard (dark squares) [26]: ~0.1 nM
amount of HTRA1 protein in PK serum samples after IV dosing of hz24F7.v2 [27]: ~4 fold
amount of HTRA1 protein in PK serum samples after IVT dosing of hz24F7.v2 [27]: ~2 fold
koff [28]: 0.00017 s⁻¹
Kd [12]: 0.093 nM
koff [12]: 0.00014 s⁻¹
kon [12]: 1.5e+06 M⁻¹ s⁻¹
Kd [29]: < 0.1 nM
Ki [13]: 0.067 nM
Kd [30]: 0.213 nM
koff [30]: 0.000416 s⁻¹
kon [30]: 1.95e+06 M⁻¹ s⁻¹
B2: antibody hz24F7.v2 (antibody, human IgG1, kappa, N297G, V domains shown)
VH: QVQLVQSGAEVKKPGASVKVSCKASGYTFTDYEMHWVRQAPGQRLEWMGAIDPETGGTAYNQKFKGRVTITADKSASTAYMELSSLRSEDTAVYYCTREGYSYEGGGYYFDYWGQGTLVTVSS
VL: DIQMTQSPSSLSASVGDRVTITCSVSSSVSYMYWYQQKPGKAPKLLIYDTSNLASGVPSRFSGSGSGTDFTFTISSLQPEDIATYYCQQWSSYPTFGQGTKLEIKR
notes: also called humanized variant of 24F7
